Measured values reported in PMC7473840 (2018).
No end group written: not given here.

Molecular target: FMRP (Homo sapiens, UniProt Q06787)

| Binder | Kd [µM] |
| --- | --- |
| TSCPKIPSSPDLKKS (also: phosphoserine pS440 plus a second phosphosite, positions not given here) | 0.42 |
| TSCPKIPSSPDLKKS (also: phosphoserine pS440, position in chain not given here) | 33.9 |
